Data as given in patent US20250011448A1 (STAIDSON BIOPHARMA, published 2025).
Where a chain is given by its changes, count along the chain named.

Columns and labels:
[1] = biological target: T1, human TNFR2 expressed on cells (Expi293 cells stably expressing huTNFR2) (human, UniProt P20333 23-461); assay: flow cytometry on Expi293 cells stably expressing huTNFR2
T1 construct: whole, on cells; Also used here as the target of the Treg assay (native TNFR2 on human primary Treg cells); also called huTNFR2 expressed cells; Expi293-TNFR2 cells
T1 sequence (looked up): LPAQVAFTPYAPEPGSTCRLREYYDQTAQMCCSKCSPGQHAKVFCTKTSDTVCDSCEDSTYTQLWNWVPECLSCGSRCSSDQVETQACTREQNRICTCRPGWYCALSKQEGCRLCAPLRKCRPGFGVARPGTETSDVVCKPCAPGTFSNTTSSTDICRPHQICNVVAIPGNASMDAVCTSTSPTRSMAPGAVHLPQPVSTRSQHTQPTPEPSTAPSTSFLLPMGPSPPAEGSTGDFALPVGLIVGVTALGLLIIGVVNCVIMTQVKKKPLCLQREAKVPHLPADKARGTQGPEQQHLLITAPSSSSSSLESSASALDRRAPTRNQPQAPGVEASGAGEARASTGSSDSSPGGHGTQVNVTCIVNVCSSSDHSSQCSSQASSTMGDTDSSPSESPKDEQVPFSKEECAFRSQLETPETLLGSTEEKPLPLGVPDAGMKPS
Protocol: The coding sequence of huTNFR2 (Uniprot, P20333) was cloned into a lentiviral vector and the virus was packaged according to the instruction of the virus packaging kit (Lenti-X™ Packaging Single Shots, Cat #631275, Takada). The Expi293 cells were transduced with the recombinant virus and selected by puromycin. The cell line stably expressing huTNFR2 was incubated with anti-TNFR2 antibodies in PBS with 0.5% BSA, 1 mM EDTA, and 0.1% sodium azide (FACS buffer) for 30 minutes at 4° C. The cells were washed, and then incubated with 10 nM phycoerythrin (PE) conjugated anti-Human Fe Ab (Biolegend, cat #409304) for 20 minutes at 4° C. Cells were washed and then […] by flow cytometry with Attune (ThermoFisher Scientific). Data were analyzed with FlowJo software. Antibody binding is represented as median fluorescence intensity (MFI).
As shown by the results in Table 9 and FIG. 4A, the anti-TNFR2 antibodies, 51B5, 102E4, 85G8.4, 29G3, 11C1, and 15H10 bind to Expi293-TNFR2 cells dose-dependently and potently.

[2] = biological target: T2, human TNFR2 extracellular domain with C-terminal 10×His tag (human, UniProt P20333 23-257); assay: ELISA, plate coated with His-tagged TNFR2 ECD, serial dilution of chimeric IgG
T2 construct: also called huTNFR2-His; His-tag-huTNFR2
T2 sequence: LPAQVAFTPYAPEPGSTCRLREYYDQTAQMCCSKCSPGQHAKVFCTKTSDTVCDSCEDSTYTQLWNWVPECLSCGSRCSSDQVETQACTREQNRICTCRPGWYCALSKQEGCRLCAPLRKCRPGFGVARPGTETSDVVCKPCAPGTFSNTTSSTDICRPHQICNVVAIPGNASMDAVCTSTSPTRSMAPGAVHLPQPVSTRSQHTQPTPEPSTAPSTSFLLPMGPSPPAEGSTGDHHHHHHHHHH
Protocol: (§1) TNFR2 binding of purified recombinant chimeric antibodies: The huTNFR2, cynoTNFR2 antigen binding ELISA was performed on the purified recombinant chimeric antibodies. Briefly, 384-well, clear, flat bottom, high binding plates (VWR, cat #29444-096) were coated overnight at 4° C. with 1 μg/mL of huTNFR2 or cynomolgus monkey TNFR2-His in PBS. After removing the coating solution, the plates were blocked by adding blocking buffer and incubated at room temperature for 1 hour. Plates were then washed 3 times with wash buffer. Serial dilution of purified antibodies in PBS was added to individual well followed by incubation at room temperature for 1 hour. Plates were washed 3 times with wash buffer. Then 50 μL/well of goat anti hu Kappa —AP (Southern Biotech, cat #2061-04) at 1:3000 dilution or goat anti human IgG Fc-AP at 1:3000 dilution in ELISA diluent was added, incubated at room temperature for 1 hour, washed 5 times with wash buffer and developed for 30 minutes with 50 μL/well of pNPP substrate. Plates were analyzed with a Bio-TEK at 405 nm. The chimeric TNFR2 antibodies were tested positive for binding to huTNFR2 and cynoTNFR2. The TNFR2 binding EC50 values are shown in Table 6, FIG. 1A (for huTNFR2) and FIG. 1B (for cynoTNFR2).

[3] = biological target: T2, human TNFR2 extracellular domain with …; assay: BLI (Octet RED96), antibody captured on AHC biosensor, His-tagged TNFR2 in solution, 1:1 model
Protocol: The following kinetic assay was performed using anti-human IgG Fc capture (AHC) biosensors (ForteBio) in kinetics buffer (PBS, 0.1% Tween-20 and 1% bovine serum albumin): (a) antibody (2 μg/mL) for 300 sec, (b) baseline for 120 sec, (c) association with His-tag-huTNFR2 (2.5, 0.5 and 0 μg/mL) and His-tag-cynoTNFR2 (2.5, 0.5 and 0 μg/mL) for 420 sec and (d) dissociation for 1200 sec. Data fitting and analysis was performed with Octet data analysis software 8.0 (ForteBio) using a 1:1 binding model after Savitzky-Golay filtering.

[4] = biological target: T3, human TNFR2 extracellular domain fused to human IgG1 Fc (human, UniProt P20333 23-257); assay: blocking ELISA: antibody pre-mixed with huTNFR2, binding of huTNFR2 to coated human TNFα read out
T3 construct: also called TNFR2-huFc; huTNFR2; not shown: C-terminal human IgG1 Fc
T3 sequence: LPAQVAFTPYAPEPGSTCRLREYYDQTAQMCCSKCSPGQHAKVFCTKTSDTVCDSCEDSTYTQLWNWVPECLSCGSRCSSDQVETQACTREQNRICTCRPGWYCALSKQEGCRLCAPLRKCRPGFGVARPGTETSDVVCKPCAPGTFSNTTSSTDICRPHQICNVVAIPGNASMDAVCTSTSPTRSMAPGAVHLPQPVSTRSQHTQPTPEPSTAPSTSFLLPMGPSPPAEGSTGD
Protocol: 96-well round bottom ELISA plates were coated overnight at 4° C. with 50 μL/well of 0.5 μg/mL human TNFα recombinant protein (R&D system, Cat #210-TA-100) in coating buffer. After removing the coating solution, blocking buffer was added into the plates followed by incubation at room temperature for 1 hour in order to block unspecific binding. During the blocking period, hybridoma antibodies samples were mixed with 0.5 μg/mL TNFR2-huFc at a 1:1 volume ratio and incubated at room temperature for another 1.5 hours. Then 50 μL/well of antigen-antibody mix solution was transferred into TNFα coated wells and incubated at room temperature for 1.5 hours. Plates were then washed 5 times with wash buffer. Then, 50 μL/well of goats anti-human IgG Fc-AP (Southern Biotech, cat #2014-04) at 1:2000 dilution in assay buffer was added, incubated at room temperature for 1 hour, washed 4 times with wash buffer and developed for 30 minutes with 50 μL/well of pNPP substrate. Plates were analyzed with a Synergy HT (Bio-TEK) at 405 nm. Parental hybridomas with the desired human and cynoTNFR2 binding as well as the ability to block human TNFR2 and human TNFα binding were prioritized for subcloning and further characterization. Subcloning was carried out with limited dilution and visual inspection was performed to ensure clonality. Hybridoma subclones were screened with the same binding and blocking assays and selected positive hits were cryopreserved.
TNFR2 blocking by purified recombinant chimeric antibodies: Human TNFR2 blocking ELISA was performed on purified recombinant chimeric antibodies following the same protocol as described above, except that 50 μL/well of serial dilution of purified antibodies (starting at 10 μg/mL, 1:3 dilution) in assay buffer was added into the reaction. The blocking IC₅₀ value represents the antibody concentration that inhibited 50% of huTNFR2 or cynoTNFR2 binding to coated human TNFα or cynomolgus monkey TNFα.

[5] = biological target: T4, cynomolgus monkey TNFR2 extracellular domain with C-terminal 10×His tag (cynomolgus monkey, UniProt P20333 23-257 (human entry)); assay: ELISA, plate coated with His-tagged TNFR2 ECD, serial dilution of chimeric IgG; ELISA; cynoTNFR2-His coated on plate at 1 µg/mL, bivalent IgG in solution
T4 construct: also called cynoTNFR2-His; His-tag-cynoTNFR2
T4 chain: T2 sequence with S16G, S36P, P117Q, N164H, E210A, S216G, M223V
Protocol: as §1

EC50 [1]: 0.819 nM
EC50 [2]: 0.04 nM
Kd [3]: 1.59 nM
koff [3]: 0.000696 s⁻¹
kon [3]: 439000 M⁻¹ s⁻¹
IC50 [4]: 1.13 nM
EC50 [5]: 0.338 nM
B1: 102E4 chimeric anti-TNFR2 antibody (antibody, V domains shown)
VH: EVLLQQSGAELVRPGASVKLSCTASGFNIKDDFIHWVQQRPEQGLEWIGRINPSNANTEYAPKFQDKATITTDTSSNTAYLQLSSLTSEDTAVYYCTRNDGYYDGLFYWGQGTTLTVSS
VL: DIVMTQSHKFMSSSVGDRVSITCKASQDVGTAVAWYQQKPGQSPKLLIYWASTRHTGVPDRFTGSGSGTDFTLTISNVQSEDLADYFCQQYSSYPFTFGSGTKLEIK
notes: Chimeric: mouse variable domains with human constant regions, made as recombinant IgG1
